In patent publication US20140328797A1:

Biological target: HRV-A and B strains tested
Assay: binding to HRV; format not stated in this example

B1: TCN-711 (6893_E11) (antibody, human IgG1, lambda, V domains shown)
VH: QVQLHQWGTGVLKPSGTLSLTCGVYGGSLTDFYWTWIRQSPARGLEWLGEIDRDGATYYNPSLKSRITISIDTSKKQFSLNLRSVTAADRAVYYCARRPMLRGVWGNFRSNWFDPWGQGTQVTVSS
VL: QSVLTQPPSVSAAPGQKVSISCSGSSSNIGYSYVSWYQQVPGSAPKLLIYENNKRPSGIPDRFSASKSGTSATLDITGLQTGDEADYYCGTWDTRLFGGVFGGGTKLTVLG
  EC50: 0.007 to 0.07 nM
